{"source": "paper PMC6458997", "about": "(Molecular Cell, 2019)", "binders": {"B1": {"name": "SPbeta AimP arbitrium peptide GMPRGA (peptide)", "peptide": "GMPRGA", "notes": "active (mature) arbitrium hexapeptide AimP of phage SPbeta, product of the yopL gene, which corresponds to phi3T aimP; also called GMPRGA peptide; SPbeta-specific arbitrium peptide; source: synthetic peptide, bought: ProteoGenix (95% purity)"}, "B2": {"name": "SPbeta AimR (arbitrium peptide receptor / transcription factor AimR of Bacillus subtilis phage SPbeta), full length (natural protein, Bacillus subtilis SPbeta phage, UniProt O64094 1-386, looked up)", "chain": "MELIRIAMKKDLENDNSLMNKWATVAGLKNPNPLYDFLNHDGKTFNEFSSIVNIVKSQYPDREYELMKDYCLNLDVKTKAARSALEYADANMFFEIEDVLIDSMISCSNMKSKEYGKVYKIHRELSNSVITEFEAVKRLGKLNIKTPEMNSFSRLLLLYHYLSTGNFSPMAQLIKQIDLSEISENMYIRNTYQTRVHVLMSNIKLNENSLEECREYSKKALESTNILRFQVFSYLTIGNSLLFSNYELAQENFLKGLSISVQNENYNMIFQQALCFLNNVWRKENKWINFESDSIMDLQEQAHCFINFNENSKAKEVLDKLDLLVHNDNELAMHYYLKGRLEQNKACFYSSIEYFKKSNDKFLIRLPLLELQKMGENQKLLELLLL", "notes": "AimR of Bacillus subtilis phage SPbeta, amplified from genomic DNA of Bacillus subtilis strain 168; full-length AimR (residues 1-386); Cloned in pLicSGC1 with N-terminal 6xHis tag and TEV site; digested with TEV protease; A selenomethionine derivative was used to phase the AimR-AimP structure; also called WT AimR; apo AimR; source: E. coli BL21 (DE3) RIL, purified (HisTrap FF, TEV digestion, …)"}, "B3": {"name": "SPbeta AimR N202A mutant (natural protein, Bacillus subtilis SPbeta phage)", "chain": "B2 chain with N202A"}, "B4": {"name": "SPbeta AimR D360A mutant (natural protein, Bacillus subtilis SPbeta phage)", "chain": "B2 chain with D360A"}}, "key": {"[1]": {"molecular_target": "B2", "experiment": "thermal shift assay (differential scanning fluorimetry); 20 μM protein, 5x Sypro Orange, 20 mM Tris pH 8, 250 mM NaCl, heated 20 to 85°C; apparent Kd from 10 peptide concentrations from 0 to 2 μM, fitted to a single binding site per monomer", "details": "both partners purified"}, "[2]": {"molecular_target": "the molecule itself", "experiment": "SEC-MALS; as the apo run, with 1 mM AimP peptide added to the injected sample and 1 μM peptide in the running buffer (25 mM Tris pH 8, 250 mM NaCl)"}, "[3]": {"molecular_target": "the molecule itself", "experiment": "SEC-MALS; 50 μL protein at 5 mg/mL on Superdex 200 HR 10/300 in 25 mM Tris pH 8, 250 mM NaCl; no peptide"}}, "note": "Substitutions are numbered along the chain they refer to. Names and notes keep the numbering of the source."}
{"binder": "B1", "values": [{"measurement": "Kd", "setting": "[1]", "value": 53.8, "unit": "nM"}, {"measurement": "increment in the melting temperature (Tm) of AimR", "setting": "[1]", "value": "~10", "unit": "°C"}]}
{"binder": "B2", "values": [{"measurement": "stoichiometry N", "setting": "[2]", "value": 2}]}
{"binder": "B3", "values": [{"measurement": "stoichiometry N", "setting": "[3]", "value": 2}]}
{"binder": "B4", "values": [{"measurement": "stoichiometry N", "setting": "[3]", "value": 2}]}
